Source: US20180064666A1 (BETH ISRAEL DEACONESS MEDICAL CENTER, published 2018)

Key:
[1] = biological target: T1, Erk1 (endogenous, member of Erk1/2) (human (endogenous in human cell lines), UniProt P27361 2-379); assay: reciprocal co-IP from HMLE lysates, western blot (FIG. 45C)
T1 construct: one entry is written for each member; also called total Erk1/2

[2] = biological target: T2, Erk2 (endogenous, member of Erk1/2) (human (endogenous in human cell lines), UniProt P28482 2-360); assay: as above
T2 construct: one entry is written for each member; also called total Erk1/2
T2 sequence (P28482 2-360 limits assumed): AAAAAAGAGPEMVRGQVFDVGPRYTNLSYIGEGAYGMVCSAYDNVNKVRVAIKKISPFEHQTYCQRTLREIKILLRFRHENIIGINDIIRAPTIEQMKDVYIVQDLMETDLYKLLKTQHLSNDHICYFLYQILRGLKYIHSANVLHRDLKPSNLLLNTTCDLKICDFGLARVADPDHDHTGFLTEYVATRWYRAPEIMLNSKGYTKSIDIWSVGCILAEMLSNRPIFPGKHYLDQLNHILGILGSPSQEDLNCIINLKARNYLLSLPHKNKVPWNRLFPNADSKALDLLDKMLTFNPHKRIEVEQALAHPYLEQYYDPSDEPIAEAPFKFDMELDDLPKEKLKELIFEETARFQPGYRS

[3] = biological target: p-Erk1 (phosphorylated Erk1, member of p-Erk1/2) (human (endogenous in human cell lines), UniProt P27361 2-379, phosphorylated (p-Erk1/2, induced by constitutively active MEK1); sites not given); assay: co-IP from HEK293 cells (FIG. 45D)
Chain of p-Erk1 (phosphorylated Erk1, member of p-Erk1/2) (P27361 2-379 limits assumed): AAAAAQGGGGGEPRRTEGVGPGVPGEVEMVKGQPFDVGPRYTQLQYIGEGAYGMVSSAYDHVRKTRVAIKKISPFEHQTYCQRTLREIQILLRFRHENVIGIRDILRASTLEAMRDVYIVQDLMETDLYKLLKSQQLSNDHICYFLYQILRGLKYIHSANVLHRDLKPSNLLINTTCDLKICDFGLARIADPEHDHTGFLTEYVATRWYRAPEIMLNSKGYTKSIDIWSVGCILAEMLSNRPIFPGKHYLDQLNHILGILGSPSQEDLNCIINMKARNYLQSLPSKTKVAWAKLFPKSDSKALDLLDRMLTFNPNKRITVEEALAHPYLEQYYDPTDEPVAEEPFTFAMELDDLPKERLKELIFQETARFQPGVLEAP

[4] = biological target: T1, Erk1 (endogenous, member of Erk1/2); assay: co-IP from HEK293 cells (FIG. 45D)
[5] = biological target: T2, Erk2 (endogenous, member of Erk1/2); assay: co-IP from HEK293 cells (FIG. 45D)
[6] = biological target: p-Erk2 (phosphorylated Erk2, member of p-Erk1/2) (human (endogenous in human cell lines), UniProt P28482 2-360, phosphorylated (p-Erk1/2, induced by constitutively active MEK1); sites not given); assay: co-IP from HEK293 cells (FIG. 45D)
Chain of p-Erk2 (phosphorylated Erk2, member of p-Erk1/2) (P28482 2-360 limits assumed): as the sequence (P28482 2-360 limits assumed) above

Measured: binding result

T1 sequence (P27361 2-379 limits assumed): as the sequence (P27361 2-379 limits assumed) above

B1: endogenous Rab2A (enzyme, human (endogenous in human HMLE cells), UniProt P61019 2-212, looked up)
chain: AYAYLFKYIIIGDTGVGKSCLLLQFTDKRFQPVHDLTIGVEFGARMITIDGKQIKLQIWDTAGQESFRSITRSYYRGAAGALLVYDITRRDTFNHLTTWLEDARQHSNSNMVIMLIGNKSDLESRREVKKEEGEAFAREHGLIFMETSAKTASNVEEAFINTAKEIYEKIQEGVFDINNEANGIKIGPQHAATNATHAGNQGGQQAGGGCC
binds: [1] | [2]

B2: Flag-Rab2A (enzyme, UniProt P61019 1-212, looked up, not shown: small tags and cut ends)
chain: MAYAYLFKYIIIGDTGVGKSCLLLQFTDKRFQPVHDLTIGVEFGARMITIDGKQIKLQIWDTAGQESFRSITRSYYRGAAGALLVYDITRRDTFNHLTTWLEDARQHSNSNMVIMLIGNKSDLESRREVKKEEGEAFAREHGLIFMETSAKTASNVEEAFINTAKEIYEKIQEGVFDINNEANGIKIGPQHAATNATHAGNQGGQQAGGGCC
notes: also called wild-type Rab2A
binds: [3] | [4] | [5] | [6]
